Measured values published in IntAct's records for PubMed 24115911.

B1: Urease accessory protein UreF (Helicobacter pylori), Q09065 (parent)
chain: MDKGKSVKSTEKSVGMPPKTPKTDNNAHVDNEFLILQVNDAVFPIGSYTHSFGLETYIQQKKVTNKESALEYLKANLSSQFLYTEMLSLKLTYESALQQDLKKILGVEEVIMLSTSPMELRLANQKLGNRFIKTLQAMNELDMGEFFNAYAQKTKDPTHATSYGVFAASLGIELKKALRHYLYAQTSNMVINCVKSVPLSQNDGQKILLSLQSPFNQLIEKTLELDESHLCTASVQNDIKAMQHESLYSRLYMS

Variants of: B1
Conditions: with ureg_helpy ureG

Row | Variant | effect of a mutation on the interaction
1 | R179A;Y183D | disrupting interaction strength
